Data from US20250313625A1 (ELPISCIENCE SUZHOU BIOPHARMA, published 2025).

Assays:
[1] = molecular target: T1, human LAG3, full length, stably expressed on cells (human, UniProt P18627 23-525); test: FACS on 293F cells stably expressing human LAG3
T1 construct: whole, on cells; also called CHOK1-human LAG3
T1 sequence (looked up): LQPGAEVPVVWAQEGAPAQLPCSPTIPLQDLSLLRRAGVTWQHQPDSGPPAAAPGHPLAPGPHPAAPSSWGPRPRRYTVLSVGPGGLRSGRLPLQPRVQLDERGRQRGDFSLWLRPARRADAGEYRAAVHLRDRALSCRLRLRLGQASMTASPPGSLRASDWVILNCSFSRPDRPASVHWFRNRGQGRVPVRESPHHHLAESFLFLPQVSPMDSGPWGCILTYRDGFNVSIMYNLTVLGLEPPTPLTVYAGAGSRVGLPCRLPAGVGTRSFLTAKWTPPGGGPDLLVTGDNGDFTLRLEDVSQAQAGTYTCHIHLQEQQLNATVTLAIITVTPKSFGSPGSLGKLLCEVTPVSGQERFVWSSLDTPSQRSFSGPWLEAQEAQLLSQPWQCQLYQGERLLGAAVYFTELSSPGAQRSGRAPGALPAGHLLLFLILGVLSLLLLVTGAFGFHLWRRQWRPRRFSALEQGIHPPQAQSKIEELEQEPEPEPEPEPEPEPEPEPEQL
Experimental: Briefly the antibodies were incubated with 2×10⁵ target cells at 4° C. for 1 hour. After washing, fluorescence labeled anti-mouse IgG 2nd antibody (Life Technologies) was added and incubated at 4° C. for 1 hour. Geometric median fluorescence intensity (MFI) was detected and EC₅₀ was calculated using GraphPad Prism9.0.
MFI was detected and EC₅₀ was calculated using GraphPad Prism9.0.

[2] = molecular target: T2, human LAG3 ECD recombinant protein (plate coated, tag not stated) (human, UniProt P18627 23-450); test: competitive ELISA format I: His-FGL1 binding to coated LAG3 ECD
T2 construct: extracellular domain
T2 sequence (looked up): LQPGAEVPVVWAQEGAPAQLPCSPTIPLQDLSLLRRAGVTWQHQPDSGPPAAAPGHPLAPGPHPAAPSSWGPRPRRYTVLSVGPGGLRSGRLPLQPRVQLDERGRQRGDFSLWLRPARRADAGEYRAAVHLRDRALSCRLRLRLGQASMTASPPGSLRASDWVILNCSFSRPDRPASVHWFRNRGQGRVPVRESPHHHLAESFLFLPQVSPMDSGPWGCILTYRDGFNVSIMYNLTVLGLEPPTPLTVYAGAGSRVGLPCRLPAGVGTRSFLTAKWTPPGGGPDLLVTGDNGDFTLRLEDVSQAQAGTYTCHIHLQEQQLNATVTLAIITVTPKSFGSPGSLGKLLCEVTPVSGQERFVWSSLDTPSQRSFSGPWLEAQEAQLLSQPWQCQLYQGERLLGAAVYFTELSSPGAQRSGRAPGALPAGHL

[3] = molecular target: T3, LAG3 D1 domain extra loop peptide (biotin labelled (site not stated)); test: ELISA format I: biotin labelled LAG3 D1 domain extra loop peptide on plate coated antibody; axis printed as Ab Conc. (nM)
T3 peptide: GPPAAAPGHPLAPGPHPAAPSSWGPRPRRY
Experimental: In ELISA binding assay of format I (FIG. 9A), biotin labelled LAG3 D1 domain extra loop peptide was incubated with ELISA microplate coated anti-LAG3 antibodies. After washing, HRP labeled anti-SA 2nd antibody (Sigma) was added and incubated at 37° C. for 1 hour. Then, 100 μl/well of TMB solution (Biotechnology) was added. After incubation for 15 minutes at room temperature, the reaction was stopped by the addition of 50 μl of 1N HCl. OD 450 nm was read. In ELISA binding assay of format II (FIG. 9B), biotin labelled LAG3 D1 domain extra loop peptide and anti-LAG3 antibodies were co-incubated in ELISA microplate coated with SA. After washing, HRP labeled anti-human Fc 2nd antibody (Sigma) was added and incubated at 37° C. for 1 hour. Then, 100 μl/well of TMB solution (Biotechnology) was added. After incubation for 15 minutes at room temperature, the reaction was stopped by the addition of 50 μl of 1N HCl. OD 450 nm was read.

[4] = molecular target: T4, mFc tagged human LAG3 ECD recombinant protein (human, UniProt P18627 23-450); test: competitive FACS: mFc-LAG3 ECD binding to Raji cells (MHC II)
T4 construct: extracellular domain; purchased from Biointron; not shown: mouse IgG Fc (mFc) tag
T4 sequence (looked up): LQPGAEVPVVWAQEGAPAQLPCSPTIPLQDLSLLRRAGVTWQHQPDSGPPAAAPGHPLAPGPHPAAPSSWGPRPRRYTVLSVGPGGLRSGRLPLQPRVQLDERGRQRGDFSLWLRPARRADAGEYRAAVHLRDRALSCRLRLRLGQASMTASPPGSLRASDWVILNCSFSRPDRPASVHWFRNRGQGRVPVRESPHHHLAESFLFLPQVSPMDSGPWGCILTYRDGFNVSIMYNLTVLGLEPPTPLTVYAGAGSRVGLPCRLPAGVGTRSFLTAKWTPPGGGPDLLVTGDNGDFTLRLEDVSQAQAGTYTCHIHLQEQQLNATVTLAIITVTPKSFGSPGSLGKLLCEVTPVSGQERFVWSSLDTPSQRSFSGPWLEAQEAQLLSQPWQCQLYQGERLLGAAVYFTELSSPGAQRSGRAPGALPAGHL
Experimental: Activity of the purified chimeric antibodies to block LAG3 and MHC II interaction was determined by competitive FACS assay. […] After washing, dye labeled anti-mouse Fc 2nd antibody (Sigma) was added and incubated at 37° C. for 1 hour. Fluorescence intensity was detected.

[5] = molecular target: T5, hFc tagged human LAG3 ECD recombinant protein (human, UniProt P18627 23-450); test: competitive ELISA format II: biotin hFc-LAG3 ECD binding to coated His-FGL1
T5 construct: range 23-450; also called biotin labelled hFc tagged human LAG3 ECD; not shown: human IgG Fc tag
T5 sequence (looked up): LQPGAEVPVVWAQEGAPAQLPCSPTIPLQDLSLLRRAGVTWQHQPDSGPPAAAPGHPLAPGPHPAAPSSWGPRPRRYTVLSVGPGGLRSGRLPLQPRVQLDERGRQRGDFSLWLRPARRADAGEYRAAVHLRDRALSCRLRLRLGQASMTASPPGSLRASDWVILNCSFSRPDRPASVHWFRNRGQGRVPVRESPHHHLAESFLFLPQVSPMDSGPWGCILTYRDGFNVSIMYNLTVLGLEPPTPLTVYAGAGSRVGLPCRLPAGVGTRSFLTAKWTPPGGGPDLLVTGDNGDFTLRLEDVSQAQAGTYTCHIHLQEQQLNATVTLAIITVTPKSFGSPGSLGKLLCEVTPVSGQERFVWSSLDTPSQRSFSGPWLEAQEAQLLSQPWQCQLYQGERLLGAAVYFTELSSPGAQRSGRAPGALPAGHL

[6] = molecular target: T6, human LAG3 (form used in Octet, Biacore and HDX-MS not given) (human, UniProt P18627 23-450, limits assumed); test: BLI (Octet), 1:1 fit
T6 sequence (looked up): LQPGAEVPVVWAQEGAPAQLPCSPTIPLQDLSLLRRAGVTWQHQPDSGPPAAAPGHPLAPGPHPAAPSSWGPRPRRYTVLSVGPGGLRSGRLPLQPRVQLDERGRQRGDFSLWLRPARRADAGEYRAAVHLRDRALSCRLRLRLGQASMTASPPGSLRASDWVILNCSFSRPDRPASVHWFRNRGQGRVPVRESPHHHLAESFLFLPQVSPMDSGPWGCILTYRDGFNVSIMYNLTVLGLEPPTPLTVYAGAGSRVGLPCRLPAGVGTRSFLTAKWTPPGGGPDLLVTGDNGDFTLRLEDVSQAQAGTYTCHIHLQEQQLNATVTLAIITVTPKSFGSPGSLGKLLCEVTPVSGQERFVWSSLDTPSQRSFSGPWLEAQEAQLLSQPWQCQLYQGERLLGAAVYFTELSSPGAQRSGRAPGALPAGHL
Experimental: The purified chimeric antibodies were characterized for binding affinity against human LAG3 using Bio-Layer Interferometry technology (Octet system). The association and dissociation curves were fit with 1:1 binding model, and the Ka/Kd/KD values for each antibody were calculated.

[7] = molecular target: T6, human LAG3 (form used in Octet, Biacore …); test: BLI (Octet)

B1: 023c (antibody, human IgG4, V domains shown)
VH: QIQLVQSGPVLKKPGETVKISCKASGYTFTESPMNWVKQAPGRGFKWMGMIYTDTGEPTYAEEFKGRFAFSLETSASTAYLQINNLKSEDTATYFCVSDYGSILYWYFDVWGTGTTVTVSS
VL: DIVMTQSHKFMSTSVGDRVSITCKASQDVSTAVAWYQQTPGQSPKLLIYSASYRYTGVPDRFTGSGSGTDFTFTISSVQAEDLAVYYCQQHYNSPPTFGAGTKLELK
notes: human IgG4 S228P / kappa chimeric antibody; also called chimeric antibody 023; ES005-023c; not shown: human kappa light chain constant region (pcDNA3.4-hIgGk vector)
EC50 [1]: 1.3 nM
TOP MFI [1]: 387
Blocking ratio at 66.7 nM (%) [2]: 52.9%
binding result [3]: no binding (tested: about 300 nM)
IC50 [4]: 3.7 nM
TOP blocking (%) [4]: 94.6%
IC50 [5]: 1.5 nM
TOP blocking (%) [5]: 82.8%
Kd [6]: 0.648 nM
koff [6]: 0.000233 s⁻¹
kon [6]: 359000 M⁻¹ s⁻¹
Kd [7]: 0.456 nM
koff [7]: 0.000161 s⁻¹
kon [7]: 352000 M⁻¹ s⁻¹
